Test results taken from patent US20040009892A1, “Method for the identification and use of substances that modulate POD function and/or structure” (The Salk Institute for Biological Studies, priority 1997, published 2004).

System: Hep-2 cells
Experiment: Immunofluorescence localization of PML and DipA in Hep-2 cells
Type: cell-based
Conditions: 5 μg of gamma interferon for 18 hrs before fixation
Protocol: Hep-2 cells were grown in round coverslips and maintained in DMEM supplemented with 10% fetal calf serum in a humidified atmosphere containing 5% CO2. Cells were treated with 5 μg of gamma interferon (Biosource) or mocked treated for 18 hrs before fixation. Cells were fixed by one of two methods. In a first method, the cells were fixed at room temperature for 5 min with freshly prepared 1% paraformaldehyde in PBS, washed with PBS, and permeabilized for 20 min on ice with 0.2% Triton X-100 in PBS (v/v) (Sigma Chemical Co.). Antigen localization (PML and DipA) was determined after incubation of permeabilized cells with rabbit antiserum (DipA Ab) and a specific PML mab diluted in PBS for 1 hr at RT. Cells were double labeled with the respective second antibodies labeled either with FITC or Texas red, using FITC for the structures with the lowest staining intensity.
Alternatively, cells were fixed at −20° C. for 5 min with fresh and cold acetone followed by fresh and cold absolute methanol.
The cells were incubated with the first Ab diluted in PBS-10% calf serum for two hrs at RT in a humidified chamber. Coverslips were washed for 10 min in PBS 0.05% Tween 20. […]
Fluorescence images were analyzed using either the Leica confocal scanning microscope or a Nikon Microphot-SA immunofluorescence microscope. […]

B1: interferon gamma: gamma interferon (Biosource) used to treat Hep-2 cells (protein, UniProt P01579 24-161, looked up)
Interferon gamma: QDPYVKEAENLKKYFNAGHSDVADNGTLFLGILKNWKEESDRKIMQSQIVSFYFKLFKNFKDDQSIQKSVETIKEDMNVKFFNSNKKKRDDFEKLTNYSVTDLNVQRKAIHELIQVMAELSPAAKTGKRKRSQMLFRG
B1 was tested, and the “co-localization of PML and DipA in the POD structures” value was “increased co-localization of PML and DipA in the POD structures”.
